Experimental findings from article PMC6422694 are described below.

This data set has as its system NC(=O)c1ccc[n+]([C@@H]2O[C@H](COP(=O)(O)OP(=O)(O)OC[C@H]3O[C@@H](n4cnc5c(N)ncnc54)[C@H](O)[C@@H]3O)[C@@H](O)[C@H]2O)c1. Put plainly: purified protein. Particulars: pH 8.1.

One may read the Km as the concentration of substrate that gives half-maximal velocity.

For (Oryza sativa Japonica Group), the Km was determined as 193.7 ± 98.2 µM.
